Test results as given in paper PMC9236144 (Molecular Biology of the Cell, 2022).

Target: Bni1FH1C (Bni1 residues 1227-1953) (S. cerevisiae, UniProt P41832 1227-1953)
Assay: fluorescence polarisation

Bni1FH1C (Bni1 residues 1227-1953), sequence (P41832 1227-1953): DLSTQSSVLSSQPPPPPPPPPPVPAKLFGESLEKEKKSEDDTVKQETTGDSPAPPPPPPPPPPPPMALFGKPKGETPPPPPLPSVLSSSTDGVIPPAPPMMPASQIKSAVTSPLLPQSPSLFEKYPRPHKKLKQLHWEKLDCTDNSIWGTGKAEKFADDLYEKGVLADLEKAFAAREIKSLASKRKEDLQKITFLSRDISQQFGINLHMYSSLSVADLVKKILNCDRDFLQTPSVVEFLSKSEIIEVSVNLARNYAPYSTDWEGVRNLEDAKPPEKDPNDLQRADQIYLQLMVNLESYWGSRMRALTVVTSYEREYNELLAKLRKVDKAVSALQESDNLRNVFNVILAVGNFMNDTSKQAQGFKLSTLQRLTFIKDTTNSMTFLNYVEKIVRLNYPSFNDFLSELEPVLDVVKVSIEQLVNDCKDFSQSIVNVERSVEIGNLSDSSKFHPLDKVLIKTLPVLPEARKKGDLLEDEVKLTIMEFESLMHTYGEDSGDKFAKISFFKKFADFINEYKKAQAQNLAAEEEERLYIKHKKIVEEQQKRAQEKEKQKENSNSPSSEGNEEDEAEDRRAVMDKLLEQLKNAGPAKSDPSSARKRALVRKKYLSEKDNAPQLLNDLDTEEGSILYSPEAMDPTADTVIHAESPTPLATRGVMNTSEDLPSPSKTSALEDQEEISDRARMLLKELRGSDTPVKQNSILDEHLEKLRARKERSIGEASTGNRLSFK

B1: Bud6C (Bud6 residues 550-789) (domain or fragment, S. cerevisiae, UniProt P41697 550-788, looked up)
chain: AKNSSNRMYMEKSQTELGDLSDTLLSKVDDLQDVIEIMRKDVAERRSQPAKKKLETVSKDLENAQADVLKLQEFIDTEKPHWKKTWEAELDKVCEEQQFLTLQEELILDLKEDLGKALETFDLIKLCCEEQEKNPSRSKSNPILPIMRPGTFNQVREQVMVAVQSLNPDHDSRVEAIDKAEKMWEMERKLKASNEFDDELENFVGNSNLKKSGGFEEVERIRKQKDEANLRAYFGPGFT
binding result: binds
